Results published in patent US11673947B2, “Target tissue-specific antigen-binding molecule” (Chugai Seiyaku Kabushiki Kaisha, priority 2012, dated 2023).

Key:
hIL-6R [1] = molecular target: T1, hIL-6R (Homo sapiens, UniProt P08887); test: IgG ELISA, binding to hIL-6R in the presence or absence of each small molecule, amino acid or amino acid metabolite
T1 sequence (P08887 20-355 limits assumed): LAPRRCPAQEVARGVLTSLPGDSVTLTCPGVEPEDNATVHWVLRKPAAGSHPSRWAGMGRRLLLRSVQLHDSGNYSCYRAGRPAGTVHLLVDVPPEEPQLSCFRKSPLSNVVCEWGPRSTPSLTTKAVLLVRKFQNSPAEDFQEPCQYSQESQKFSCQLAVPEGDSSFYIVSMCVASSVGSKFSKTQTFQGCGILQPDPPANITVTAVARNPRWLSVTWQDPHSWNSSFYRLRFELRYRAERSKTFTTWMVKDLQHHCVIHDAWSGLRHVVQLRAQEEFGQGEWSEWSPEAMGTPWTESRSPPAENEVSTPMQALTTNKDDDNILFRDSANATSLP
Protocol: Three types of antibodies obtained: 6RNMSC1-2_F02 and 6RNMSC1-3_G02, and GC413 were subjected to ELISA under the nine conditions described in Table 3. Meanwhile, each small molecule was appropriately prepared at the concentrations shown in Table 3 using the buffers indicated in Table 19. The antigen used was biotin-labeled hIL-6R.
First, a StreptaWell 96 microtiter plate (Roche) was coated at room temperature for one hour or more with 100 μl of PBS containing biotin-labeled hIL-6R. After washing with Wash buffer to remove unbound biotin-labeled hIL-6R from the plate, each well was blocked for one hour or more with 250 μl of Blocking Buffer. After Blocking Buffer was removed from each well, the purified IgGs were prepared to 2.5 μg/ml in Sample Buffer containing small molecules at the final concentrations shown in Table 3, and each was aliquoted at 100 μl into the plate. The plate was allowed to stand at room temperature for one hour to allow binding of each IgG to biotin-labeled hIL-6R in each well. After washing with Wash Buffer containing small molecules at the final concentrations shown in Table 3, an HRP-conjugated anti-human IgG antibody (BIOSOURCE) diluted with Sample Buffer containing the same small molecules was added to each well. The plate was incubated for one hour. Following wash with Wash Buffer containing each small molecule, the TMB single solution (ZYMED) was added to each well. The chromogenic reaction in the solution of each well was terminated by adding sulfuric acid. Then, the developed color was assessed by measuring absorbance at 450 nm.
6RNMSC1-2_F02 described in Example 14, which has antigen-binding activity in the presence of kynurenine, and negative control GC413 were subjected to ELISA under the seven conditions described in Table 18. Meanwhile, each small molecule was appropriately prepared at the concentrations shown in Table 18 using the buffers indicated in Table 4. The antigen used was biotin-labeled hIL-6R. ELISA was carried out using the method described in Example 11.

BaF/hIL-6R cells = test: Flow cytometry, binding to membrane-type hIL-6R on BaF/hIL-6R cells; assay type: cell-based
Protocol: 6RNMSC1-2_F02 antibody which has an antigen-binding activity in the presence of kynurenine as described in Example 14 was assessed for its binding to soluble hIL-6R. As a first step in assessing the ADCC activity of 6RNMSC1-2_F02 to hIL-6R-expressing cells, 6RNMSC1-2_F02 was evaluated as to whether it has the ability to bind to membrane-type hIL-6R expressed in hIL-6R-expressing cells. Specifically, the binding of 6RNMSC1-2_F02 to cells of the BaF/hIL-6R line (WO2012/073992) was assayed and analyzed using a flow cytometer. An appropriate number of BaF/hIL-6R cells were prepared and blocked with PBS containing 2% FBS on ice for one hour or more. Supernatant was removed from the blocked cells by centrifugation, and 100 μl of 6RNMSC1-2_F02 or the control antibody MRA (the heavy chain and light chain sequences are shown in SEQ ID NOs: 92 and 93, respectively) was added under two conditions: in the presence or absence of a final concentration of kynurenine at 100 μM. In this step, the antibodies were contacted with cell-membrane hIL-6R on ice for 30 minutes. […] Then, in the presence or absence of kynurenine, the complex was contacted with a secondary antibody (Beckman Coulter IM1627) that recognizes the antibody constant region. […] The binding of 6RNMSC1-2_F02 to the prepared cells was assayed and analyzed using the BD FACS cant II Flow Cytometer (BD).

hIL-6R [2] = molecular target: T1, hIL-6R; test: IgG ELISA, binding to hIL-6R in mouse serum with or without kynurenine; settings: Table 20: condition 1 (mouse serum without kynurenine) vs condition 2 (mouse serum in the presence of kynurenine)
Protocol: As described in Example 14, antibody 6RNMSC1-2_F02 which has antigen-binding activity in the presence of kynurenine, and the known anti-hIL-6R antibody MRA were subjected to ELISA under the two conditions described in Table 20. The antigen used was biotin-labeled hIL-6R.
First, a StreptaWell 96 microtiter plate (Roche) was coated at room temperature for one hour or more with 100 μl of PBS containing the biotin-labeled antigen. After washing with Wash buffer to remove unbound antigen from the plate, each well was blocked for one hour or more with 250 μl of Blocking Buffer. After Blocking Buffer was removed from each well, each of the purified IgGs was prepared to 2.5 μg/ml under condition 2 shown in Table 20, and aliquoted at 100 μl into the plate. The plate was allowed to stand at room temperature for one hour to allow binding of each IgG to the antigen in each well. After washing with Wash Buffer containing 100 μM kynurenine, an HRP-conjugated anti-human IgG antibody (BIOSOURCE) diluted with Sample Buffer containing kynurenine was added to each well. The plate was incubated for one hour. Following wash with Wash Buffer containing kynurenine, the TMB single solution (ZYMED) was added to each well. The chromogenic reaction in the solution of each well was terminated by adding sulfuric acid. Then, the developed color was assessed by measuring absorbance at 450 nm.

B1: 6RNMSC1-2_F02: antibody that binds to hIL-6R in the presence of kynurenine; SEQ ID NOs: 86 and 87 (antibody, listed as Homo sapiens, V domains shown)
VH: QVQLVQSGAEVKKPGSSVKVSCKASGGTFSSYAISWVRQAPGQGLEWMGGIIPIFGTANYAQKFQGRVTITADESTSTAYMELSSLRSEDTAVYYCARDAPVVARPRGAFDIWGQGTMVTVSS
VL: DIVMTQTPLSSPVTLGQPASISCRSSQSLVHSDGNTYLSWLQQRPGQPPRLLIHEISNRFSGVPDRFSGSGAGTNFTLKISRVEAEDVGVYYCMQATQFPRTFGQGTKVEIK
absorbance under condition 5 compared to condition 1 (hIL-6R [1]; Table 18: condition 5 (3-hydroxykynurenine solution)): the same high absorbance | absorbance under condition 7 as compared to condition 1 (hIL-6R [1]; Table 18: condition 7 (absence of small molecules) vs condition 1 (kynurenine solution)): markedly lower | absorbance under other conditions (hIL-6R [1]; Table 18: remaining conditions, incl. tryptophan): markedly lower | absorbance under condition 7 compared to condition 8 (hIL-6R [1]; condition 7 (100 μM kynurenine)): the same | absorbance under condition 9 as compared to condition 8 (hIL-6R [1]; condition 9 (in the absence of small molecules) vs condition 8 (complete small molecule cocktail solution)): markedly lower | absorbance under other conditions (hIL-6R [1]; remaining conditions of Table 3): markedly lower | fluorescence (binding to membrane-type hIL-6R) (BaF/hIL-6R cells; in the absence of kynurenine): not detectable | fluorescence (binding to membrane-type hIL-6R) (BaF/hIL-6R cells; in the presence of 100 μM kynurenine): fluorescence shift was observed | absorbance under condition 1 as compared to condition 2 (hIL-6R [2]): markedly lower
